{"source": "patent EP0980526B1", "about": "(IMPERIAL CANCER RESEARCH TECHNOLOGY LIMITED, dated 1998)", "binders": {"B1": {"name": "GST-AF2 (ligand binding domain of the mouse estrogen receptor fused to glutathione-S-transferase) (receptor, UniProt P19785 313-599, looked up)", "chain": "SLTADQMVSALLDAEPPMIYSEYDPSRPFSEASMMGLLTNLADRELVHMINWAKRVPGFGDLNLHDQVHLLECAWLEILMIGLVWRSMEHPGKLLFAPNLLLDRNQGKCVEGMVEIFDMLLATSSRFRMMNLQGEEFVCLKSIILLNSGVYTFLSSTLKSLEEKDHIHRVLDKITDTLIHLMAKAGLTLQQQHRRLAQLLLILSHIRHMSNKGMEHLYNMKCKNVVPLYDLLLEMLDAHRLHAPASRMGVPPEEPSQTQLATTSSTSAHSLQTYYIPPEAEGFPNTI", "notes": "range 313-599; Loaded on glutathione beads; tested with or without 10^-6 M E2; also called ER LBD; not shown: glutathione-S-transferase (GST)"}}, "target": "T1, SRC1a-M1234 (human, UniProt Q15788 1-1441, [35S]-labelled)", "T1 construct": "range 1-1441; also called mutant SRC1", "T1 sequence (Q15788 other isoform, or with tags, fused parts or gaps limits assumed)": "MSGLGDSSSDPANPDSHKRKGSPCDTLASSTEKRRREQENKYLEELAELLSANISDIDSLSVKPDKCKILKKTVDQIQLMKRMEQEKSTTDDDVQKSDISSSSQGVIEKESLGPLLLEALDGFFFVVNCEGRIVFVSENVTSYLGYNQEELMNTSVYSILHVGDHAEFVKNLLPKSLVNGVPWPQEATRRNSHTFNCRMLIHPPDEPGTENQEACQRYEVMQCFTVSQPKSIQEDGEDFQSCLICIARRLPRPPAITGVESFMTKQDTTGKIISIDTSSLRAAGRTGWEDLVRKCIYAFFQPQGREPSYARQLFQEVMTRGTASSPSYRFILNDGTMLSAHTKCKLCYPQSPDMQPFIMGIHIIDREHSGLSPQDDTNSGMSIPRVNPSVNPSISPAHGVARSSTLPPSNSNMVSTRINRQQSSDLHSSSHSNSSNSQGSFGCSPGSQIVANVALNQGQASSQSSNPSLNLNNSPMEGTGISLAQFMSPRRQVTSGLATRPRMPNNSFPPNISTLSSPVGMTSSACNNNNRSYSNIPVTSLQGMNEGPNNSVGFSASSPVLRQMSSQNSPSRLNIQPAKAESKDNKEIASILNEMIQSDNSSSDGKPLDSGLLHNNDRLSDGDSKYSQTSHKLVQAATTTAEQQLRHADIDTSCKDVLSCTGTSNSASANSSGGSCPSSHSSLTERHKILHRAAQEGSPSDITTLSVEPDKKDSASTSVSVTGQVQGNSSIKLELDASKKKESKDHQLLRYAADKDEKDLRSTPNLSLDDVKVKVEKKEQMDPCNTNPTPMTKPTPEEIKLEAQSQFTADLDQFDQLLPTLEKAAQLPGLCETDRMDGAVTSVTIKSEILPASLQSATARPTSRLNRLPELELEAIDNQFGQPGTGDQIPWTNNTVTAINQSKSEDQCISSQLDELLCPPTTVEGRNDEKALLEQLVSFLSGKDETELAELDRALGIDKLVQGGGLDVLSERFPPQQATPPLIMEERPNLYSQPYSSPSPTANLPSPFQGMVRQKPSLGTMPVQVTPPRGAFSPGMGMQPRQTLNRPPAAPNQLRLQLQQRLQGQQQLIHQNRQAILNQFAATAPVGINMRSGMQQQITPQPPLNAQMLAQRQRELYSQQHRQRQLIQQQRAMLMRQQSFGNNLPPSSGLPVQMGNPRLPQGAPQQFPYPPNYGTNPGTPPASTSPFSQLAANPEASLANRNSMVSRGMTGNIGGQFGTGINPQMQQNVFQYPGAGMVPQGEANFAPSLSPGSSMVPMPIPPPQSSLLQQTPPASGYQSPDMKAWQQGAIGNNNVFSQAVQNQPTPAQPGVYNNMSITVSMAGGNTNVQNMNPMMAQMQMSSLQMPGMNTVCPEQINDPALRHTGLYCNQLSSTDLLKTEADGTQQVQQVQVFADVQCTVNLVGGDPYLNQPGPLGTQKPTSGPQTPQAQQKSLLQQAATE", "test": "GST pulldown, +/- 10^-6 M E2"}
{"binder": "B1", "values": [{"measurement": "binding result", "value": "no binding"}]}
